Here are results for five molecules from publication PMC5314169, “Structure of the Branched-chain Amino Acid and GTP-sensing Global Regulator, CodY, from Bacillus subtilis*” (The Journal of Biological Chemistry, 2016).

In general, stoichiometry N refers to the number of molecules, sites or subunits per partner or assembly.

Data set [1] concerns the target CodY(L3S), leucine 3 to serine mutant of CodY from Bacillus subtilis (Bacillus subtilis) (UniProt P39779). Put plainly: crystal structure; CodY(L3S) at 18 mg/ml with 20 mM isoleucine; 15% PEG 5000, 5% tacsimate, 0.1 M HEPES pH 7.5; four molecules per asymmetric unit.
The target of data set [2] is T1, CodY (wild type, C-terminal His5) (Bacillus subtilis, UniProt P39779 2-259).
T1 sequence: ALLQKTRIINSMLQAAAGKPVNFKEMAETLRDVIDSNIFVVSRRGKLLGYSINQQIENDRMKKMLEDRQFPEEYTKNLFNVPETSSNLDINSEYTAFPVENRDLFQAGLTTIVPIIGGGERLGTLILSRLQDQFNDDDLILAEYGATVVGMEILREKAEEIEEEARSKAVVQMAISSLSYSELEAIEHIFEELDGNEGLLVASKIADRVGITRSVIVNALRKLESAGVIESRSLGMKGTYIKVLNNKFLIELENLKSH
Put plainly: EMSA; 10 mM Ile/Leu/Val; apparent Kd, CodY monomer; C2 predominant; EMSA: 20 mM Tris-Cl pH 8.0, 50 mM KCl, 2 mM MgCl2, 5% glycerol, 0.5 mM EDTA, 1 mM DTT, 0.05% Nonidet P, salmon sperm DNA (printed 40-25 ug/ml), room temperature 16 min, +/-10 mM ILV. The note with it: protein: recombinant, tags: C-terminal His5, chain copies: 2, blunt. (In general: A gel shift assay detects complexes by their altered migration in electrophoresis.)

Data set [3] concerns the target T1, CodY (wild type, C-terminal His5). Put plainly: EMSA; 10 mM Ile/Leu/Val; only C1 complex; EMSA: 20 mM Tris-Cl pH 8.0, 50 mM KCl, 2 mM MgCl2, 5% glycerol, 0.5 mM EDTA, 1 mM DTT, 0.05% Nonidet P, salmon sperm DNA (printed 40-25 ug/ml), room temperature 16 min, +/-10 mM ILV. Particulars: protein: recombinant; tags: C-terminal His5; chain copies: 2; label: 32P 5' on one strand; blunt.

Data set [4] concerns the molecule itself. Put plainly: crystal structure; unliganded CodY, three crystal forms (A, B, C) grown from 10-20 mg/ml protein; form B with 10 mM GTP and form C with 5 mM GTPgammaS present but not seen bound; tetramer in all forms.
Data set [5] concerns the molecule itself. Put plainly: SEC-MALLS; 100 ul of 1 mg/ml (~35 uM) protein on Superdex S200 10/300 in 50 mM Tris-HCl pH 7.5, 150 mM NaCl, with or without 10 mM isoleucine (no effect on the trace); no tetramers seen.

“CodY(L3S), leucine 3 to serine mutant of CodY from Bacillus subtilis (from UniProt P39779 1-259) (natural protein)” came in with a stoichiometry N in data set [1] of 4.

B1: BcaPp8(31) (dsDNA)
DNA 1: TAAAAAATTTGTCGAATTTTCTGAAAATTTT
DNA 2: AAAATTTTCAGAAAATTCGACAAATTTTTTA
With B1, the Kd in data set [2] (label: 32P 5' on one strand) came to 1.6 nM.

B2: BcaPp8(19) (dsDNA)
DNA 1: CGAATTTTCTGAAAATTTT
DNA 2: AAAATTTTCAGAAAATTCG
For the molecule B2, in data set [3], the binding result is listed as “binds”.

B3: BcaPp8(36) (dsDNA)
DNA 1: CAAAATAAAAAATTTGTCGAATTTTCTGAAAATTTT
DNA 2: AAAATTTTCAGAAAATTCGACAAATTTTTTATTTTG
Consider B3, for which the Kd in data set [2] (label: 32P 5' on one strand in EMSA) came to 1.6 nM.

B4: CodY from Bacillus subtilis, full-length, wild type (natural protein)
chain: GPAMALLQKTRIINSMLQAAAGKPVNFKEMAETLRDVIDSNIFVVSRRGKLLGYSINQQIENDRMKKMLEDRQFPEEYTKNLFNVPETSSNLDINSEYTAFPVENRDLFQAGLTTIVPIIGGGERLGTLILSRLQDQFNDDDLILAEYGATVVGMEILREKAEEIEEEARSKAVVQMAISSLSYSELEAIEHIFEELDGNEGLLVASKIADRVGITRSVIVNALRKLESAGVIESRSLGMKGTYIKVLNNKFLIELENLKSH
notes: what is left of the tag after cleavage with human rhinovirus 3C protease, printed as Gly-Pro-Ala; CodY, Bacillus subtilis, 259 amino acid residues, calculated mass 29 kDa; construct pET-YSBLIC-BsCodY; also called unliganded CodY; wild-type CodY; source: E. coli BL21(DE3), purified (nickel chelation, 3C protease cleavage, second nickel column, heparin, Superdex 200); not shown: polyhistidine, …
On to B4, for which the results for the “stoichiometry N” value in data set [4] and in data set [5] were 4 and 2, respectively.
